± gives the uncertainty stated by the source.

B1: DnaJ homolog subfamily C member 5, residues 16 to 77; numbered along this chain, Q9H3Z4 (parent)
chain: LYHVLGLDKNATSDDIKKSYRKLALKYHPDKNPDNPEAADKFKEINNAHAILTDATKRNIYD

In this data set the parent is B1. Put plainly: abundance fitness (aPCA) (normalised: wild type 0, dead -1); higher = more abundant; growth selection in yeast, the domain comes from the species named. Particulars: Homo sapiens.
On to LYHVLGLDKNAGSDDIKKSYRKLALKYHPDKNPDNPEAADKFKEINNAHAILTDATKRNIYD [T12G], for which the abundance fitness is -0.472 ± 0.072.

For LYHVLGLDKNALSDDIKKSYRKLALKYHPDKNPDNPEAADKFKEINNAHAILTDATKRNIYD [T12L], the abundance fitness was -0.813 ± 0.084.

For LYHVLGLDKNADSDDIKKSYRKLALKYHPDKNPDNPEAADKFKEINNAHAILTDATKRNIYD [T12D], the abundance fitness was -0.467 ± 0.21.

In the case of LYHVLGLDKNAKSDDIKKSYRKLALKYHPDKNPDNPEAADKFKEINNAHAILTDATKRNIYD [T12K], the abundance fitness is -0.437 ± 0.14.

In the case of LYHVLGLDKNAHSDDIKKSYRKLALKYHPDKNPDNPEAADKFKEINNAHAILTDATKRNIYD [T12H], the abundance fitness is -0.349 ± 0.13.

For LYHVLGLDKNASSDDIKKSYRKLALKYHPDKNPDNPEAADKFKEINNAHAILTDATKRNIYD [T12S], the abundance fitness is -0.232 ± 0.11.

For the variant LYHVLGLDKNAASDDIKKSYRKLALKYHPDKNPDNPEAADKFKEINNAHAILTDATKRNIYD [T12A], the abundance fitness was -0.878 ± 0.12.

Regarding LYHVLGLDKNAPSDDIKKSYRKLALKYHPDKNPDNPEAADKFKEINNAHAILTDATKRNIYD [T12P], the abundance fitness is -1.01 ± 0.1.

LYHVLGLDKNAWSDDIKKSYRKLALKYHPDKNPDNPEAADKFKEINNAHAILTDATKRNIYD [T12W]: the abundance fitness is -1.31 ± 0.12.

As to LYHVLGLDKNANSDDIKKSYRKLALKYHPDKNPDNPEAADKFKEINNAHAILTDATKRNIYD [T12N], the abundance fitness was -0.426 ± 0.17.

Take LYHVLGLDKNACSDDIKKSYRKLALKYHPDKNPDNPEAADKFKEINNAHAILTDATKRNIYD [T12C]: the abundance fitness is -0.235 ± 0.12.

Take LYHVLGLDKNAISDDIKKSYRKLALKYHPDKNPDNPEAADKFKEINNAHAILTDATKRNIYD [T12I]: the abundance fitness is -0.412 ± 0.11.

LYHVLGLDKNAESDDIKKSYRKLALKYHPDKNPDNPEAADKFKEINNAHAILTDATKRNIYD [T12E]: the abundance fitness is -0.573 ± 0.12.

Regarding LYHVLGLDKNAMSDDIKKSYRKLALKYHPDKNPDNPEAADKFKEINNAHAILTDATKRNIYD [T12M], the abundance fitness was -0.678 ± 0.12.

On to LYHVLGLDKNAFSDDIKKSYRKLALKYHPDKNPDNPEAADKFKEINNAHAILTDATKRNIYD [T12F], for which the abundance fitness is -0.857 ± 0.13.

As for LYHVLGLDKNAYSDDIKKSYRKLALKYHPDKNPDNPEAADKFKEINNAHAILTDATKRNIYD [T12Y], the abundance fitness is -1.07 ± 0.2.

As to LYHVLGLDRNATSDDIKKSYRKLALKYHPDKNPDNPEAADKFKEINNAHAILTDATKRNIYD [K9R], the abundance fitness was -0.116 ± 0.065.

Take LYHVLGLDSNATSDDIKKSYRKLALKYHPDKNPDNPEAADKFKEINNAHAILTDATKRNIYD [K9S]: the abundance fitness is -0.125 ± 0.076.

With LYHVLGLDYNATSDDIKKSYRKLALKYHPDKNPDNPEAADKFKEINNAHAILTDATKRNIYD [K9Y], the abundance fitness is -0.163 ± 0.18.

Consider LYHVLGLDQNATSDDIKKSYRKLALKYHPDKNPDNPEAADKFKEINNAHAILTDATKRNIYD [K9Q], for which the abundance fitness was -0.25 ± 0.17.

Turning to LYHVLGLDNNATSDDIKKSYRKLALKYHPDKNPDNPEAADKFKEINNAHAILTDATKRNIYD [K9N], the abundance fitness was -0.394 ± 0.16.

Consider LYHVLGLDMNATSDDIKKSYRKLALKYHPDKNPDNPEAADKFKEINNAHAILTDATKRNIYD [K9M], for which the abundance fitness was -0.458 ± 0.087.

Take LYHVLGLDVNATSDDIKKSYRKLALKYHPDKNPDNPEAADKFKEINNAHAILTDATKRNIYD [K9V]: the abundance fitness was -0.004 ± 0.073.

Regarding LYHVLGLDPNATSDDIKKSYRKLALKYHPDKNPDNPEAADKFKEINNAHAILTDATKRNIYD [K9P], the abundance fitness was -0.252 ± 0.096.

LYHVLGLDINATSDDIKKSYRKLALKYHPDKNPDNPEAADKFKEINNAHAILTDATKRNIYD [K9I]: the abundance fitness was -0.099 ± 0.19.

Take LYHVLGLDWNATSDDIKKSYRKLALKYHPDKNPDNPEAADKFKEINNAHAILTDATKRNIYD [K9W]: the abundance fitness was -0.499 ± 0.094.

In the case of LYHVLGLDTNATSDDIKKSYRKLALKYHPDKNPDNPEAADKFKEINNAHAILTDATKRNIYD [K9T], the abundance fitness is -0.27 ± 0.091.

With LYHVLGLDKNGTSDDIKKSYRKLALKYHPDKNPDNPEAADKFKEINNAHAILTDATKRNIYD [A11G], the abundance fitness was -0.536 ± 0.1.

LYHVLGLDKNLTSDDIKKSYRKLALKYHPDKNPDNPEAADKFKEINNAHAILTDATKRNIYD [A11L]: the abundance fitness is -0.941 ± 0.15.

Consider LYHVLGLDKNQTSDDIKKSYRKLALKYHPDKNPDNPEAADKFKEINNAHAILTDATKRNIYD [A11Q], for which the abundance fitness was -1.25 ± 0.33.

For LYHVLGLDKNETSDDIKKSYRKLALKYHPDKNPDNPEAADKFKEINNAHAILTDATKRNIYD [A11E], the abundance fitness was -1.13 ± 0.25.

In the case of LYHVLGLDKNTTSDDIKKSYRKLALKYHPDKNPDNPEAADKFKEINNAHAILTDATKRNIYD [A11T], the abundance fitness is -0.553 ± 0.16.

As to LYHVLGLDKNVTSDDIKKSYRKLALKYHPDKNPDNPEAADKFKEINNAHAILTDATKRNIYD [A11V], the abundance fitness is -0.661 ± 0.11.

In the case of LYHVLGLDKNSTSDDIKKSYRKLALKYHPDKNPDNPEAADKFKEINNAHAILTDATKRNIYD [A11S], the abundance fitness is -0.578 ± 0.14.

As for LYHVLGLDKNKTSDDIKKSYRKLALKYHPDKNPDNPEAADKFKEINNAHAILTDATKRNIYD [A11K], the abundance fitness was -0.569 ± 0.16.

Take LYHVLGLDKNPTSDDIKKSYRKLALKYHPDKNPDNPEAADKFKEINNAHAILTDATKRNIYD [A11P]: the abundance fitness was -0.536 ± 0.23.

In the case of LYHVLGLDKNCTSDDIKKSYRKLALKYHPDKNPDNPEAADKFKEINNAHAILTDATKRNIYD [A11C], the abundance fitness is -0.182 ± 0.22.

As to LYHVLGLDKNMTSDDIKKSYRKLALKYHPDKNPDNPEAADKFKEINNAHAILTDATKRNIYD [A11M], the abundance fitness was -1.6 ± 0.38.

On to LYHVLGLDKNWTSDDIKKSYRKLALKYHPDKNPDNPEAADKFKEINNAHAILTDATKRNIYD [A11W], for which the abundance fitness is -1.24 ± 0.21.

In the case of LYHVLGLDKNITSDDIKKSYRKLALKYHPDKNPDNPEAADKFKEINNAHAILTDATKRNIYD [A11I], the abundance fitness was -1.49 ± 0.32.

For the variant LYHVLGLDKNRTSDDIKKSYRKLALKYHPDKNPDNPEAADKFKEINNAHAILTDATKRNIYD [A11R], the abundance fitness was -0.846 ± 0.1.

For LYHVLGLDKNNTSDDIKKSYRKLALKYHPDKNPDNPEAADKFKEINNAHAILTDATKRNIYD [A11N], the abundance fitness was -0.125 ± 0.36.

Regarding LYHVLGLDKNATSHDIKKSYRKLALKYHPDKNPDNPEAADKFKEINNAHAILTDATKRNIYD [D14H], the abundance fitness was -0.394 ± 0.26.

(Values after the Human Domainome abundance scans (Beltran et al. 2025).)
